# Test results from the DeepSol protein solubility set.
# Assay: soluble on expression in E. coli; label from the status in PepcDB or PDB records
row,Sequence,soluble on expression in E. coli
1,SLKIKNILLSGGSGKRLWPLSRSLYPKQFLKLFDHKSLFELSFKRNASLVDETLIVCNEKHYFLALEEIKNEIKNKSVGFLLESLSKNTANAIALSALMSDKEDLLIVTPSDHLIKDLQAYENAIKKAIDLAQKGFLVTFGVSIDKPNTEFGYIESPNGLDVKRFIEKPSLDKAIEFQKSGGFYFNSGMFVFQAGVFLDELKKHAPTILKGCERAFESLENAYFFEKKIARLSEKSMQDLEDMSIDIALMQQSHKIKMVELNAKWSDLGNFNALFEEAANEPKENVSLNQTPVFAKESENNLVFSHKVSALLGVENLAVIDTKDALLIAHKDKAKDLKALVNEVETNN,soluble
2,MLWQQKSFTEQTEQGTLYIVPTPIGNLEDMTFRAVRTLQEADVIAAEDTRQTKKLLAHFGIHTPLVSYHEHNKYASGRQLVEWLKEGKTVALVSDAGMPGISDPGYELIAAALAERCRVVPLPGANAALTALVASGLPTDRFLFVGFLKRAKKEKKEQLLSLKTAAETLIFYEAPHRLKETLALMYDIFGNRRIALGRELTKRFEEFIRGDLSDAVAWAEEHDIRGEFCLIVEGARDGNKQEQEGEEWWQPLSLVEHVDYYIREHSLSVKEAVKQAASDRNMSKRDVYRQYHQQQEEEKKEFL,not soluble
3,MSLIEVDLLNNDNLKKKTSGFTILSGDSTDGHGGYGAGVLSLDNVTPVFVDPEEERAFVDLGALHARSEVEKRIKFLPNKEEVPNGKLYWLVWVTIDSKKEGPYYAGVAGCEMTVDREIRRGYKSMPEHVNKMDKSIKGKIVVDDMDERSKRILGEYLKSFNEDMWKRSEPELREKLLGEKEGHHHHHH,soluble
4,MGSSHHHHHHSSGRENLYFQGHMPSNLNIVKVTKPQEENKNFLHKNTNEPNEMEQSQTQEAVTENFTENSNLSANEHAARRGRLNLKTVDHIETYPIVQETEEIAKKIALTRIILAQTKPRIDKVVVSRPVQAVAPVVNFFDKMANSTLSTVERVVPSLKTKTYKRLGEEIALPYTLSKKYGKQLRDTTARNGDNYVYQPVHGRLMKFRKYYNEKFIDTKGKPLIRGQLDPVLLPVNNTFEKVTVKYLPKGKKVPNDSFSCEFNRGLALEYNFMTRAVSAVSHQVVGIAKLPIAYGYHTNSVYNKNLDKQADLKMKNVLRGTWDTITDLEREIWASVTDRSLFRFFGNKSEGGDLPHLVQ,soluble
5,MGSDKIHHHHHHMSLAQFQSVECADCPIRHRAVCARCDADELEALDAIKFYRSYEAGQTVVWSGDQMNFVGSVVSGIATLTQTMEDGRTQMVGLLLPSDFVGRPGREGSAYDVVATTDVIMCCFRKKPFEDLMVRTPHIAHRLLEMTLDELDAAREWMLVLGRKTAREKIASLLSIIARRDASLAVDPSNGAVSFDLKLTREAMADYLGLTLETVSRQISALKKAGVIQLEGKRHVTVPDMHRLIEEAGDDSDGGVLG,not soluble
6,AARLPVAPRHLPTLEKFRAEQPTVQGTSTPTISANAALLIGSLLQSEKLPFEVMAARLSPERYALQQFHGSDLQQMLGRFAEPGHLPGKAETEQLIKGFARSLADQLEHFQLMHDATAEAFGPGGLRDRNTLAVSQAALGEYAGRASKSIEAGLNHSLAVLDERIAALDSQLEGATEDSRPVLLMDRQALETARAMLSDLHVDFCKSPEAKRLSAVAAHTQMDALIDKLNVDRSSVGGWKGIGPIVAAAVPQFMVSMLHLGYIRTATSDAMKDAVPEKSADASMKRALAVGLTAGVAHEGVTNLLKPMVQAGFQKAGLNERLNMVPLKGIDTDSVIPDPFELKNDNGALVRKTPEEAAEDKAFVASERAVLNQKKVQVSSTHPLGEMIPYGAFGGGQAVRQMLNDFNLLNGQTLSARAVTSGIAGAISATTQTIAQLNSTYVDPRGRKIPVFTPDRANADLGKDLAKGLDLREPAVRTAFYSKAVSGVQSAALNGALPSVAVQPQGASGTLSAGNIMRNMALAATGSVSYLSTLYANQSVTAEAKALKEAGMGGATPMVARTETALSNIRHPDRASLPHTFQPDTLGGVPRAVENAYHMARGALQLPTQVVVDTVRVVEDGVASGVSSLRDAHKPAET,not soluble
7,MNIIIATTKSWNIKNAQKFKKENESKYNTTIITNKDELTFEKVKLINPEYILFPHWSWIIPKEIFENFTCVVFHMTDLPFGRGGSPLQNLIERGIKKTKISAIKVDGGIDTGDIFFKRDLDLYGTAEEIFMRASKIIFNDMIPELLTKRPVPQKQEGEATVFQRRKPEQSEISPDFDLEKIYDYIRMLDGEGYPRAFIKYGKYRLEFSRASMKNGKIIADVEIIEGDENE,soluble
8,FQIGDMVARKSYQMDVLFRIIGIEQTSKGNSIAILHGDEVRLIADSDFSDLVAVKKDEQMMRKKKDESRMNESLELLRQDYKLLREKQEYYATSQYQHQEHYFHMPGKVLHLDGDEAYLKKCLNVYKKIGVPVYGIHCHEKKMSASIEVLLDKYRPDILVITGHDAYSKQKGGIDDLNAYRHSKHFVETVQTARKKIPHLDQLVIFAGACQSHFESLIRAGANFASSPSRVNIHALDPVYIVAKISFTPFMERINVWEVLRNTLTREKGLGGIETRGVLRIGMPYKSN,not soluble
9,MKSYPDPYRHFENLDSAETQNFAAEANAETRARFLENDKARALSDGILAQLQDTRQIPFCQEHRARMYHFHQDAEYPKGVYRVCTAATYRSGYPEWKILFSVADFDELLGDDVYLGGVSHLVEQPNRALLTLSKLGSDTAYTLEVDLEAGELVEGGFHFPAGKNHVSWRDENSVWVCPAWNERQLTQSGYPREVWLVERGKSFEESLPVYQIGEDGMMVNAWRYLDPQGSPIDLIEASDGFYTKTYLRVSAEGEAKPLNLPNDCDVVGYLAGHLLLTLRKDWN,not soluble
10,GQSLRSFQKQNEDNDKRQQILRSINVNVSSSEAETKYNELIKEAFLVNENGEKVEGDAFATDVVKAATEHQYPVFVANVDGQPKYIMALHGAGLWGPLWGYISVDSDKNTIYGADFSHQGETPGLGAEISKPVFSNEFKGKKIFMSGEFKSVAVVKPGKSVAGQDYVDGISGGTITSKGVDEMLFNSLSGYVKFLTSQN,soluble
11,KLAYKLGIGLECPFDKIWSLQTGVSFVSKGTNHTIVETDGISAQAKVNASYLEFPVMVAARFAMDRNTYILVAAGPYGAWGIGGKTKALGYSWSSSSTPDWNTGNVVEINTFGKDGLDLRRFDYGVAIGLSVEYRHYVIGVEGRLGLCKLQKELQGKNITGFVTAGYKF,not soluble
12,MATPAFVKRITRSDAVLSLGVNFSKIYFKFVMWTGRYDRQAVPIPEPYILAMWHGRLIMAPMLQTKSKPLVALISGHRDGKIISRVGAAFGIQTAVGSSSKGGMRAAREMMRLGKSGHSLFVTPDGPRGPRMRINSEGVLDMARLTGLPILPVSVSLSRHKLLRSWDRLMLPGLFAKVAIRFGEPITVEAGSPTAEMAERLQAALTAAQNETDRIVGLQPVETALEHHHHHH,soluble
13,GSHMTNWLRVYYYEDTISTIKDIAVEEDLSSTPLLKDLLELTRREFQREDIALNYRDAEGDLVRLLSDEDVALMVRQARGLPSQKRLFPWKLHITQKDNYRVYNTMP,soluble
14,AELRSREYAEILKQKQELSLVEAGEFNSLGKRNGRVYFVETFDTESGIMKNLFLREQDKNGGDNIIFAKEGNFSLNDNKRTLELRHGYRYSGTPGRADYNQVSFQKLNLIISTTPKLIDPVSHRRTIPTAQLIGSSNPQHQAELMWR,soluble
15,MGSDKIHHHHHHMESFNEYHIDPKQFPFLKNFQDNWQVIRDEYTSFINNASNEELKFTYDVLGPKSQTIKTKGKSKYSAFGILFQGMFIEKYIQAHQIKYPDYGPDEASKKALVLREKYFTNLANVIKDVNLIEDDIIRNVYYGTFHPGLDIKLHVNYNPHTNRGYLGLIVPEGDVAMKICHDQLYWHEGKFLVLDHSYPHCPHNYTSYDRTVLVVDFFKPDKPRDEVIEFEKEQVTQRMQDNPYSLGVFGKSDKAKEEDFIKYGLAHQLEWDKALI,not soluble
16,MSLVKAVLFDIDGTLLSEKPLIMFILPQVYDELANKLNISRMEARRIFLSEIEKRKGKYEWHDWNFFFRLFSLPFKYEDFIMKYPTKIEVFPGVVEVLKYLKERGYRLGIVTSGPRYQVLKLKVSGIYRYFDVVVTRDDVGSIKPEPRIFLAALEKLKISPKDAVMVGDSLEQDILGAKGVGMKSVWINVGGENGYNLPDFEISSILQLPEVIEDESDIEGHHHHHH,soluble
17,GIDPFTMVALSLKISIGNVVKTMQFEPSTMVYDACRMIRERIPEALAGPPNDFGLFLSDDDPKKGIWLEAGKALDYYMLRNGDTMEYRKKQRPLKIRMLDGTVKTIMVDDSKTVTDMLMTICARIGITNHDEYSLVRELMEEKKDELNWLDHGRTLREQGVEEHETLLLRRKFFYSDQ,soluble
18,MSATETITTNARVLGADPLVKDGFGEEDMLTLVLPYIKTAREGVLRLGELLETYGTYESNGIAFADTEEIWWLKTIGGHNWIARRVPDDAYVTNPNQLGIDHYEFENPDDYLASPDIRDFINKHHLDLTYSNEHFNPRYAFGSQRDKDHHYNTPRARAM,soluble
19,MPWRNKEASSPSSANPPLEALQSPSFRGNMADKLKDPSTLGFLEAAVKISHTSPDIPAEVQMSVKEHIMRHTRLQRQTTEPASSTRHTSFKRHLPRQMHVSSVDYGNELPPAAEQPTSIGRIKPELYKQKSVDGEDAKSEATKSCGKINFSLRYDYETETLIVRILKAFDLPAKDFCGSSDPYVKIYLLPDRKCKLQTRVHRKTLNPTFDENFHFPVPYEELADRKLHLSVFDFDRFSRHDMIGEVILDNLFEASDLSRETSIWKDIQYATSESVDLGEIMFSLCYLPTAGRLTLTVIKCRNLKAMDITGYSDPYVKVSLLCDGRRLKKKKTTIKKNTLNPVYNEAIIFDIPPENMDQVSLLISVMDYDRVGHNEIIGVCRVGITAEGLGRDHWNEMLAYPRKPIAHWHSLVEVKKSFKEGNPRL,not soluble
20,MSLTLPSEKPATDVAAQCFLNALIRETTDWKLTEYPPDELIIPLDEQKSLHFRVAYFSPTQHHRFAFPARLVTASGSYPVDFTTLSRLIIDKLRHQLFLPVPLCETFHQRVLESHAHTQQAIDARHDWTALREKALNFGEAEQALLTGHAFHPAPKSHEPFNRREAERYLPDMAPHFPLRWFSVDKTQIAGESLHLNLQQRLTRFAAENAPQLLNELSDNQWLFPLHPWQGEYLLQQGWCQALVAKGLIKDLGEAGTSWLPTTSSRSLYCATSRDMIKFSLSVRLTNSIRTLSVKEVKRGMRLARLAQTDGWQMLQVRFPTFRVMQEDGWAGLLDLNGNIMQESLFALRENLLVDQPKSQTNVLVSLTQAAPDGGDSLLVSAVKRLSDRLGITVQQAAHAWVDAYCQQVLKPLFTAEADYGLVLLAHQQNILVQMLGDLPVGFIYRDCQGSAFMPHATDWLDSIGEAQAENEGHHHHHH,not soluble
21,MSAEQDKEPIALKRVRGGDSGLDGLGGPNIQLGSPDKKKRKANTQGSSFPPLSEYAPPPNPNSDHLVAANPFDDSYNTISYKPLPSSNPYLGPGYPGFGGYSTFRMPPHVPPRMSSPYCGPYSLRNQPHPFPQNPLGMGFNRPHAFNFGPHDNSNFGNPPYNNVLTQDINMPGQHFRQGSAENFSQIPPQNVGQVSNPDLASNFAPGNNSNFTSPLETNHSFIPPPNAFGQAKAPLPKQDFTQGATKTPNQNSSTHPPHLNMEDPVNQSNVELKNVNRNNVVQENSRSGSAEATNNHANGTQNKPRQPRGAADLCTPDKSRKFSLLPSRHGHSSSDPVYPCGICTNEVNDDQDAILCEASCQKWFHRICTGMTETAYGLLTAEASAVWGCDTCMADKDVQLMRTREAFGPPAVGGDA,soluble
22,MGSSHHHHHHSSGLVPRGSHMIRYSEVTPYHVTSVWTKGVTPPANFTQGEDVFHAPYVANQGWYDITKTFNGKDDLLSGAATAGNMLHWWFDQNKDQIKRYLEEHPEKQKINFNGEQMFDVKEAIDTKNHQLDSKLFEYFKEKAFPYLSTKHLGVFPDHVIDMFINGYRLSLTNHGPTPVKEGSKDPRGGIFDAVFTRGDQSKLLTSRHDFKEKNLKEISDLIKKELTEGKALGLSHTYANVRINHVINLWGADFDSNGNLKAIYVTDSDSNASIGMKKYFVGVNSAGKVAISAKEIKEDNIGAQVLGLFTLSTGQDSWNQTN,soluble
